The record followed here is publication PMC10141540.

Series [1] addresses T1, HU-B (Escherichia coli, UniProt P0ACF4 1-90).
T1 sequence: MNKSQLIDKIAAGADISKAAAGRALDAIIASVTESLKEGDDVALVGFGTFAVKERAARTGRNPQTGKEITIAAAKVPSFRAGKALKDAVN
Briefly: condensate co-localization.

For series [2], the target named is T1, HU-B. The series can be described thus: EMSA.
Series [3] concerns the target HU-A (Escherichia coli, UniProt P0ACF0 1-90). Briefly: EMSA.

Sequence of HU-A (P0ACF0 whole entry): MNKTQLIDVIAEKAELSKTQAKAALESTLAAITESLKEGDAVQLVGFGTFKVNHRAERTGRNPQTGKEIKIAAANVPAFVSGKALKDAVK

B1: 20 bp dsDNA (dsDNA)
DNA 1: GTTCAATTGTTGTTAACTTG
DNA 2: CAAGTTAACAACAATTGAAC
In the case of B1, in series [1], the binding result is “binds”.

B2: 4WJ DNA (structured_DNA)
DNA 1: CCCTATAACCCCTGCATTGAATTCCAGTCTGATAA
DNA 2: GTAGTCGTGATAGGTGCAGGGGTTATAGGG
DNA 3: AACAGTAGCTCTTATTCGAGCTCGCGCCCTATCACGACTA
DNA 4: TTTATCAGACTGGAATTCAAGCGCGAGCTCGAATAAGAGCTACTGT
In the case of B2, the binding result in series [2] and in series [3] was “binds” each time.
